In experiment [1] the target is T1, receptor for activated C kinase (RACK1), endogenous, HT-1080 cells (human, UniProt P63244 1-317). Description: cell-based or functional assay.
Experiment [2] concerns the target T1, receptor for activated C kinase …. Briefly: cell-based or functional assay. The source holds these as a separate data set.

B1: C2 peptide (RMWYNFDHNY) (peptide)
peptide: RMWYNFDHNY
As for B1, in experiment [1], the “IC50 of doxorubicin, HT1080, MTT viability, C2 0.25 µM, 1% O2 (Experiment 1)” value came to 39.7 nM; the “IC50 of doxorubicin, HT1080, MTT viability, C2 0.25 µM, 21% O2 (Experiment 1)” value is 12.2 nM; the “IC50 of doxorubicin, HT1080, MTT viability, C2 5.00 µM, 1% O2 (Experiment 1)” value amounted to 39.1 nM; the “IC50 of doxorubicin, HT1080, MTT viability, C2 5.00 µM, 21% O2 (Experiment 1)” value is 17.2 nM. In addition, in experiment [2], the “IC50 of doxorubicin, HT1080, MTT viability, C2 0.25 µM, 1% O2 (Experiment 2)” value is 30.6 nM; the “IC50 of doxorubicin, HT1080, MTT viability, C2 0.25 µM, 21% O2 (Experiment 2)” value worked out at 11.7 nM; the “IC50 of doxorubicin, HT1080, MTT viability, C2 20.0 µM, 1% O2 (Experiment 2)” value came out at 15.7 nM; the “IC50 of doxorubicin, HT1080, MTT viability, C2 20.0 µM, 21% O2 (Experiment 2)” value amounted to 10 nM.

B2: C2WY→AA peptide (RMAANFDHNY) (peptide)
peptide: RMAANFDHNY
Take B2: in experiment [1], the “IC50 of doxorubicin, HT1080, MTT viability, C2WY→AA 0.25 µM, 1% O2 (Experiment 1)” value was determined as 99.1 nM; the “IC50 of doxorubicin, HT1080, MTT viability, C2WY→AA 0.25 µM, 21% O2 (Experiment 1)” value is 21.3 nM; the “IC50 of doxorubicin, HT1080, MTT viability, C2WY→AA 5.00 µM, 1% O2 (Experiment 1)” value is 76.4 nM; the “IC50 of doxorubicin, HT1080, MTT viability, C2WY→AA 5.00 µM, 21% O2 (Experiment 1)” value stood at 16.4 nM. In experiment [2], the “IC50 of doxorubicin, HT1080, MTT viability, C2WY→AA 0.25 µM, 1% O2 (Experiment 2)” value worked out at 98.9 nM; the “IC50 of doxorubicin, HT1080, MTT viability, C2WY→AA 0.25 µM, 21% O2 (Experiment 2)” value worked out at 12.5 nM; the “IC50 of doxorubicin, HT1080, MTT viability, C2WY→AA 20.0 µM, 1% O2 (Experiment 2)” value was 74.3 nM; the “IC50 of doxorubicin, HT1080, MTT viability, C2WY→AA 20.0 µM, 21% O2 (Experiment 2)” value was found to be 10.9 nM.

These data come from patent publication US20180353525A1 (SOCPRA SCIENCES SANT ET HUMAINES S E C, published 2018).
